The text below walks through data of patent US20260055186A1 (REPERTOIRE IMMUNE MEDICINES, published 2026).

The chains are these.
B1: humanized 02A01-VH4-VK2 (antibody, human IgG1, V domains shown)
VH: EVQLVQSGAEVKKPGATVKISCKASGYTFTDFTMHWVQQAPGKGLEWIGLVNPNNGGNIYAEKFQGRATLTVDTSTSTAYMELSSLRSEDTAVYYCGRVPLYTSHGMDYWGQGTLVTVSS
VL: EIVLTQSPATLSVSPGERATISCRASESVDSYDINSMHWYQQKPGQAPRLLIYRASHLQSGIPARFSGSGSRTDFTLTISSVEPEDFATYYCQQSNEDPLTFGQGTKLEIK
notes: human IgG1 format; also called 02-VH4/VK2
B2: humanized 02A01-VH6-VK2 (antibody, human IgG1, V domains shown)
VH: B1 VH with A68V
VL: B1 VL
notes: human IgG1 format; also called 02-VH6/VK2
B3: humanized 02A01-VH6-VK1 (antibody, human IgG1, V domains shown)
VH: B1 VH with A68V
VL: B1 VL with A47P
notes: human IgG1 format; also called 02-VH6/VK1
B4: humanized 02A01-VH3-VK3 (antibody, human IgG1, V domains shown)
VH: B1 VH with V18L, A92S
VL: B1 VL with V13L, V82L
notes: human IgG1 format; also called 02-VH3/VK3
B5: humanized 02A01-VH6-VK3 (antibody, human IgG1, V domains shown)
VH: B1 VH with A68V
VL: B1 VL with V13L, V82L
notes: human IgG1 format; also called 02-VH6/VK3
B6: humanized 02A01-VH4-VK3 (antibody, human IgG1, V domains shown)
VH: B1 VH
VL: B1 VL with V13L, V82L
notes: human IgG1 format; also called 02-VH4/VK3
B7: humanized 03A01-VH2-VK2 (antibody, human IgG1, V domains shown)
VH: EVQFQESGPGLVKPSQTLSLTCTVSGYSITSDFAWNWIRQPPGKGLEWMGYISYSGDTNYNPSLRSRITISRDTSKNQFSLKLSSVTAADTAVYYCTIRGYYTDSAFVFWGQGTLVTVSS
VL: DIQMTQSPSTLSVSVGDRVTITCKASDHINNWLAWYQQKPGKAPKLLISGATSLETGVPSRFSGSGSGLEYTLTISSLQPDDFATYYCQQYWNSPFTFGQGTKLEIK
notes: human IgG1 format; also called 03-VH2/VK2
B8: humanized 03A01-VH1-VK3 (antibody, human IgG1, V domains shown)
VH: B7 VH with S25T, G45E, V93T
VL: B7 VL with V13A
notes: human IgG1 format; also called 03-VH1/VK3
B9: humanized 03A01-VH2-VK3 (antibody, human IgG1, V domains shown)
VH: B7 VH
VL: B7 VL with V13A
notes: human IgG1 format; also called 03-VH2/VK3
B10: 02A01-IgG-IL12 (HC) (other)
VH: EVQLQQSGPELVKPGASLKISCKASGYTFTDFTMHWVKQSHGKSLEWIGLVNPNNGGNIYNQNFKGKATLTVDTSSSTAYMELRSLTSEDSSVYYCGRVPLYTSHGMDYWGQGTSVTVSS
VL: DIVLTQSPAFLAVSLGQRATISCRASESVDSYDINSMHWYQQKPGQPPKLLIYRASHLQSGIPARFSGSGSRTDFTLTINFVEADDVATYYCQQSNEDPLTFGAGTKLELK
B11: 02A01-Fab-Fc-IL12 (LC) (other)
VH: B10 VH
VL: B10 VL
B12: 02A01-Fab-IL12 (LC) (other)
VH: B10 VH
VL: B10 VL
B13: 03A01-IgG-IL12 (HC) (other)
VH: DVQFQESGPGLVKPSQSLSLTCTVTGYSITSDFAWNWIRQFPGNELEWMGYISYSGDTNYNPSLRSRISITRDTSKNQFFLQLDSVTTEDTATYYCTIRGYYTDSAFVFWGQGTLVTVSA
VL: DIQMTQSSSYLSVSLGGRVTITCKASDHINNWLAWYQQKPGNAPRLLISGATSLETGVPSRFTGSGSGLDYTLSITSLQTEDVATYYCQQYWNSPFTFGSGTKLEIK
B14: 03A01-Fab-Fc-IL12 (LC) (other)
VH: B13 VH
VL: B13 VL
B15: 03A01-Fab-IL12 (LC) (other)
VH: B13 VH
VL: B13 VL

Residue numbers refer to the chain shown, from its start.

T1 sequence (P01732 22-182, chain 1 of 2): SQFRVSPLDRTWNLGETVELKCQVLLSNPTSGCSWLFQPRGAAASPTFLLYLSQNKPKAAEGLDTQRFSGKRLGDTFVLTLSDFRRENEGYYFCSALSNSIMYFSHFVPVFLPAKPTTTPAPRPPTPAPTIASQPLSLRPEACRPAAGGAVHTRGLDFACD
T1 sequence (P10966 22-170, chain 2 of 2): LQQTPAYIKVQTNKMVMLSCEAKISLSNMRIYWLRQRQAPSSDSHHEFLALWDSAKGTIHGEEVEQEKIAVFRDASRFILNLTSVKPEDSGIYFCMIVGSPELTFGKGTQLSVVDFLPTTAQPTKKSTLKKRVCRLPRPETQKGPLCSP

One assay concerns the target T1, human CD8α/β (human, UniProt P01732 22-182; P10966 22-170).
T1 construct: Soluble heterodimer used in SPR and in the Carterra binning (there printed only as CD8α/β); also called hCD8α/β
Briefly: SPR, antibody captured on Protein A chip, hCD8α/β as analyte. The procedure:
(§1) The binding affinities of six of the humanized anti-CD8 antibodies to human CD8 were also determined by surface plasmon resonance (SPR). Briefly, equilibrium dissociation constants for human CD8α/β were determined using a real-time SPR biosensor using a Protein A Sensor Chip (Cytiva) to capture purified anti-CD8 monoclonal antibodies at a concentration of 0.5 nM. SPR binding studies were performed in a buffer composed of Phosphate buffered saline, pH 7.2 containing 0.05% v/v Surfactant P20 (PBS-P20 buffer). Different concentrations of hCD8α/β prepared in PBS-P20 running buffer (ranging from 500 nM to 7.8 nM, 2-fold dilutions) were injected over the anti-CD8 monoclonal antibody captured surface. Association of hCD8α/β to the captured monoclonal antibody was monitored for 400 seconds and the dissociation of hCD8α/β in PBS-P20 running buffer was monitored for 600 sec. All of the binding kinetics experiments were performed at 25° C. Kinetic association (kₐ) and dissociation (kd) rate constants were determined by fitting the real-time sensorgrams to a 1:1 binding model using Scrubber 2.0c curve fitting software.
In general terms: Surface plasmon resonance follows binding to a sensor surface in real time, without labels.
As for B1, the “Fold Change to Parental Calculated KD” value was 2.1 fold.

Take B2: the “Fold Change to Parental Calculated KD” value is 1.79 fold.

As to B3, the “Fold Change to Parental Calculated KD” value was 1.71 fold.

Turning to B4, the “Fold Change to Parental Calculated KD” value is 2.37 fold.

As to B5, the “Fold Change to Parental Calculated KD” value was 2.12 fold.

Regarding B6, the “Fold Change to Parental Calculated KD” value was 2.13 fold.

In the next assay the target is T2, human CD8 on human T cells (human, UniProt P01732 22-235).
T2 construct: whole, on cells; the antibodies were raised against human CD8 alpha; also called CD8 on human CD8+ T cells; hCD8
T2 sequence (P01732 22-235): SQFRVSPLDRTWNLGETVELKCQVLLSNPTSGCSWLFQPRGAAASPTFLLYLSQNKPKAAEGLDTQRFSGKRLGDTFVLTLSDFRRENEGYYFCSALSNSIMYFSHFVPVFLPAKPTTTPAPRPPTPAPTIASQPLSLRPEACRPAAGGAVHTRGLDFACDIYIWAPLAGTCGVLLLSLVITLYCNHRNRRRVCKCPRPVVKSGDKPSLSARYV
Briefly: flow cytometry on human CD8+ T cells, titration. The procedure:
(§2) The 24 humanized 02A01-derived anti-CD8 antibodies (excluding 02A01-VK3(D30E/N35Q)) were screened for their ability to bind human CD8 by evaluating binding to CD8+ T cells. The non-humanized parent (“02-Parent”) and the non-humanized parent comprising a heavy chain M39L liability mutation (“02-Parent-VH-M39L”) were used as controls. […] Cells were washed with 1×phosphate buffered saline (PBS) containing 1 mg/mL bovine serum albumin (PBS/BSA) and then stained with a 1:100 dilution of DyLight650-conjugated anti-human IgG H+L polyclonal antibody (ThermoFisher cat. no. Sa5-10129) in PBS/BSA. Following a 20-30 min incubation at 4° C., the cells were washed once with PBS/BSA, and then resuspended in PBS/BSA for analysis on a FACSCelesta using Diva software (BD Biosciences). The resulting data were analyzed using FlowJo. Data were quantified and reported as Max fluorescence intensity (MFI) of human IgG-Fc. […] Complete replacement of the HCDR1 (antibodies comprising VH5) eliminated binding to the CD8+ T cells.
(§3) Binding to human CD8+ T cells was tested at 7 serial 5-fold dilutions of each tested humanized 02A01 variant (from 50 nM to 3.2 pM). The resulting data were analyzed using FlowJo.
(Flow cytometry measures light scatter and fluorescence of single cells or particles in a stream.)
B1: the “Fold Change to Parental Apparent KD” value came out at 1.14 fold and the “Maximum CD8+ T cell Binding (MFI)” value was found to be 2680 MFI.

Turning to B2, the “Fold Change to Parental Apparent KD” value turned out to be 1.68 fold and the “Maximum CD8+ T cell Binding (MFI)” value was found to be 2770 MFI.

Regarding B3, the “Fold Change to Parental Apparent KD” value was 1.02 fold and the “Maximum CD8+ T cell Binding (MFI)” value stood at 2620 MFI.

In the case of B4, the “Fold Change to Parental Apparent KD” value turned out to be 1.58 fold and the “Maximum CD8+ T cell Binding (MFI)” value stood at 2540 MFI.

As to B5, the “Fold Change to Parental Apparent KD” value was 1.51 fold and the “Maximum CD8+ T cell Binding (MFI)” value amounted to 2540 MFI.

With B6, the “Fold Change to Parental Apparent KD” value was 1.56 fold and the “Maximum CD8+ T cell Binding (MFI)” value came to 2620 MFI.

For another assay, the target named is T2, human CD8 on human T cells. Briefly: flow cytometry on human CD8+ T cells, titration, apparent KD. The procedure: (§4) The 16 above-referenced humanized 03A01-derived anti-CD8 antibodies were screened for their ability to bind human CD8 by evaluating binding to CD8⁺ T cells. The non-humanized parent (“03-Parent”) and the non-humanized parent comprising a heavy chain D64E liability mutation (“03-Parent-VH-D64E”) were used as controls. […] Cells were washed with 1×phosphate buffered saline (PBS) containing 1 mg/mL bovine serum albumin (PBS/BSA) and then stained with a 1:100 dilution of DyLight650-conjugated anti-human IgG H+L polyclonal antibody (ThermoFisher cat. no. Sa5-10129) in PBS/BSA. Following a 20-30 min incubation at 4° C., the cells were washed once with PBS/BSA, and then resuspended in PBS/BSA for analysis on a FACSCelesta using Diva software (BD Biosciences). The resulting data were analyzed using FlowJo. Data were quantified and reported as Max fluorescence intensity (MFI) of human IgG-Fc. […] Complete replacement of the LCDR1 (antibodies comprising VK4) eliminated binding to the CD8⁺ T cells.
(§5) The binding affinities of five of the above-referenced humanized anti-CD8 antibodies to human CD8 were determined by evaluating binding to CD8 human T cells using the method described above. Binding to human CD8+ T cells was tested at 7 serial 5-fold dilutions of each humanized 03A01 variant (from 50 nM to 3.2 pM). The resulting data were analyzed using FlowJo.
Consider B7, for which the Kd amounted to 1.84 nM.

B8: the Kd stood at 1.6 nM.

As to B9, the Kd stood at 1.91 nM.

The target of another assay is T1, human CD8α/β. Briefly: SPR, antibody captured on Protein A chip, hCD8α/β as analyte, 1:1 fit. How it is done:
as §1
B1 had a Kd of 19.5 nM.

In turn, B2 returned a Kd of 16.6 nM.

Molecule B3 displayed a Kd of 15.9 nM.

Molecule B4 came in with a Kd of 22 nM.

In the case of B5, the Kd is 19.6 nM.

The molecule B6 displayed a Kd of 19.8 nM.

The target in a further assay is T2, human CD8 on human T cells. Put plainly: flow cytometry on human CD8+ T cells, titration, apparent KD. This is another data set of the same source. The procedure: as §2, §3
Regarding B1, the Kd turned out to be 0.065 nM.

In the case of B2, the Kd is 0.096 nM.

Regarding B3, the Kd was determined as 0.058 nM.

Regarding B4, the Kd came to 0.09 nM.

As to B5, the Kd turned out to be 0.089 nM.

As to B6, the Kd was found to be 0.089 nM.

The next assay addresses T2, human CD8 on human T cells. Put plainly: cell-based or functional assay.
For B10, the “EC50 of pSTAT4 signaling in human CD8+ T cells” value (“EC50 of pSTAT4 signaling” below) worked out at 3.03 pM.

Turning to B11, the “EC50 of pSTAT4 signaling” value worked out at 2.11 pM.

For B12, the “EC50 of pSTAT4 signaling” value turned out to be 1.74 pM.

B13: the “EC50 of pSTAT4 signaling” value was 15.7 pM.

B14: the “EC50 of pSTAT4 signaling” value is 13.4 pM.

For the molecule B15, the “EC50 of pSTAT4 signaling” value was 11.1 pM.

The next assay concerns the target T2, human CD8 on human T cells. Put plainly: flow cytometry on human CD8+ T cells, titration. The source holds these as a separate data set. How it is done: as §4, §5
For B7, the “Fold Change to Parental Apparent KD” value was 2 fold.

For B8, the “Fold Change to Parental Apparent KD” value worked out at 1.7 fold.

Regarding B9, the “Fold Change to Parental Apparent KD” value is 2.1 fold.
